From publication PMC4943715, “Expression of Biphenyl Synthase Genes and Formation of Phytoalexin Compounds in Three Fire Blight-Infected Pyrus communis Cultivars” (PLoS ONE, 2016)
Numbering of substitutions follows the chain as printed.

B1: PcBIS1 (Pyrus communis) (protein)
chain: MAPLVKNHVEPPHAKILAIGTANPPNVYYQKDYPDFLFRVTKNEHRTDLREKFDRICEKSRTRKRYLYLTEEILNANPSIYTYGAPSLDVRQDMLNPEVPKLGQQAALKAIKEWGQPISKITHLIFCTASCVDMPGADFQLVKLLGLNPSVTRTMIYEAGCYAGATVLRLAKDFAENNEDARVLVVCAEITTVFFHGLTDTHLDILVGQALFADGASAVIVGANPEPEIERPLFEIVACRQTIIPNSEHGVVANIREMGFNYYLSGDVPKFVGGSVVDFLTKTFEKVDGKNKDWNSLFLSVHPGGPAIVDQVEEQLGLKEGKLRATRHVLSEYGNMGAPSVHFILDEMRNKSIGEGKATTGEGLEWGVVIGIGPGLTVETAVLRSESIPC
B2: PcBIS2 (Pyrus communis) (protein)
chain: B1 chain with R231S, D267E, S275N, L299F, N350K, G354E

What was measured:
Experiment in all cases: product formation, HPLC-DAD of ethyl acetate extract; Hanes plot
Type in all cases: biochemical, Pyrus communis
[1] = substrate: CC(C)(COP(=O)(O)OP(=O)(O)OC[C@H]1O[C@@H](n2cnc3c(N)ncnc32)[C@H](O)[C@@H]1OP(=O)(O)O)[C@@H](O)C(=O)NCCC(=O)NCCSC(=O)CC(=O)O; conditions: benzoyl-CoA as starter at saturation, 0.1 M potassium phosphate pH 7.0, 35°C, 5 min
From the text: (§1) product formation, HPLC-DAD of ethyl acetate extract; Hanes plot on PcBIS1

[2] = substrate: CC(C)(COP(=O)(O)OP(=O)(O)OC[C@H]1O[C@@H](n2cnc3c(N)ncnc32)[C@H](O)[C@@H]1OP(=O)(O)O)[C@@H](O)C(=O)NCCC(=O)NCCSC(=O)c1ccccc1; conditions: malonyl-CoA at saturation, 0.1 M potassium phosphate pH 7.0, 35°C, 5 min
From the text: as §1

[3] = substrate: CC(C)(COP(=O)(O)OP(=O)(O)OC[C@H]1O[C@@H](n2cnc3c(N)ncnc32)[C@H](O)[C@@H]1OP(=O)(O)O)[C@@H](O)C(=O)NCCC(=O)NCCSC(=O)c1ccccc1O; conditions: malonyl-CoA at saturation, 0.1 M potassium phosphate pH 7.0, 35°C, 5 min
From the text: as §1

[4] = substrate: CC(C)(COP(=O)(O)OP(=O)(O)OC[C@H]1O[C@@H](n2cnc3c(N)ncnc32)[C@H](O)[C@@H]1OP(=O)(O)O)[C@@H](O)C(=O)NCCC(=O)NCCSC(=O)CC(=O)O; conditions: benzoyl-CoA as starter at saturation, 0.1 M potassium phosphate pH 7.0, 35°C, 5 min; remark: listed apart in the source
From the text: (§2) product formation, HPLC-DAD of ethyl acetate extract; Hanes plot on PcBIS2

[5] = substrate: CC(C)(COP(=O)(O)OP(=O)(O)OC[C@H]1O[C@@H](n2cnc3c(N)ncnc32)[C@H](O)[C@@H]1OP(=O)(O)O)[C@@H](O)C(=O)NCCC(=O)NCCSC(=O)c1ccccc1; conditions: malonyl-CoA at saturation, 0.1 M potassium phosphate pH 7.0, 35°C, 5 min; remark: listed apart in the source
From the text: as §2

[6] = substrate: CC(C)(COP(=O)(O)OP(=O)(O)OC[C@H]1O[C@@H](n2cnc3c(N)ncnc32)[C@H](O)[C@@H]1OP(=O)(O)O)[C@@H](O)C(=O)NCCC(=O)NCCSC(=O)c1ccccc1O; conditions: malonyl-CoA at saturation, 0.1 M potassium phosphate pH 7.0, 35°C, 5 min; remark: listed apart in the source
From the text: as §2

Protein	Km [1]	Km [2]	kcat [2]	kcat/Km [2]	Km [3]	kcat [3]	kcat/Km [3]	Km [4]	Km [5]	kcat [5]	kcat/Km [5]	Km [6]	kcat [6]	kcat/Km [6]
B1	13.7 ± 2.9 µM	1.1 ± 0.2 µM	0.055 ± 0.005 s⁻¹	50000 M⁻¹ s⁻¹	78.4 ± 4.8 µM	0.77 ± 0.075 s⁻¹	9820 M⁻¹ s⁻¹							
B2								11.6 ± 2.2 µM	0.9 ± 0.1 µM	0.035 ± 0.00167 s⁻¹	38900 M⁻¹ s⁻¹	95.2 ± 5.4 µM	0.89 ± 0.09 s⁻¹	9350 M⁻¹ s⁻¹
